The text below walks through data of patent US20220332804A1 (CSL INNOVATION, published 2022).

What all share (assay): SPR, antibody captured, C2 as analyte;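 also: biacore at 37 °C, anti-C2 mAbs held by immobilised goat anti-human IgG, C2 alanine or serine mutants injected, double-referenced sensorgrams fitted to a 1:1 kinetic or steady-state model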
Background: In SPR one partner is held on a chip, and binding of the other changes the refractive index at the surface.

For one assay, the target named is T1, human C2 D282A (human, UniProt P06681 21-752).
T1 sequence: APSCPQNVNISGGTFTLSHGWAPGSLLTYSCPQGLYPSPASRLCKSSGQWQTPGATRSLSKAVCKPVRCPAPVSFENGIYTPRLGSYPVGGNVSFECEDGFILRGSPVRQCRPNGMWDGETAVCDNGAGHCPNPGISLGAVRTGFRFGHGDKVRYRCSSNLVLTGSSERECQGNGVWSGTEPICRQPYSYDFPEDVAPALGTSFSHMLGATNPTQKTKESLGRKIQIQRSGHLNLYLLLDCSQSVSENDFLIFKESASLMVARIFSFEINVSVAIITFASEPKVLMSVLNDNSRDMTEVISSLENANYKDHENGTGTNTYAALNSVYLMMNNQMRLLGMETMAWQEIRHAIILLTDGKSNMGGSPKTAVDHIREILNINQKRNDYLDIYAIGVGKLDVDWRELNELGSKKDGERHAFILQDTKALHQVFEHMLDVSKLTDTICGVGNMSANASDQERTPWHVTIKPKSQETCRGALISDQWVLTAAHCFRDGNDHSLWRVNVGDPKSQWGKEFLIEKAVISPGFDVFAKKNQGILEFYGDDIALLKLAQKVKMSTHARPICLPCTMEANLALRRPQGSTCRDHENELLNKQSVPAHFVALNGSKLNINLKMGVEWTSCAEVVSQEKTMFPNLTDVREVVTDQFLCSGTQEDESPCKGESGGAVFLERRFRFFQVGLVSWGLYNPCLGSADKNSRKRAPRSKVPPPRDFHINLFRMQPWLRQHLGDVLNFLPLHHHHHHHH

A further assay deals with T2, human C2 N325A (human, UniProt P06681 21-752).
T2 sequence: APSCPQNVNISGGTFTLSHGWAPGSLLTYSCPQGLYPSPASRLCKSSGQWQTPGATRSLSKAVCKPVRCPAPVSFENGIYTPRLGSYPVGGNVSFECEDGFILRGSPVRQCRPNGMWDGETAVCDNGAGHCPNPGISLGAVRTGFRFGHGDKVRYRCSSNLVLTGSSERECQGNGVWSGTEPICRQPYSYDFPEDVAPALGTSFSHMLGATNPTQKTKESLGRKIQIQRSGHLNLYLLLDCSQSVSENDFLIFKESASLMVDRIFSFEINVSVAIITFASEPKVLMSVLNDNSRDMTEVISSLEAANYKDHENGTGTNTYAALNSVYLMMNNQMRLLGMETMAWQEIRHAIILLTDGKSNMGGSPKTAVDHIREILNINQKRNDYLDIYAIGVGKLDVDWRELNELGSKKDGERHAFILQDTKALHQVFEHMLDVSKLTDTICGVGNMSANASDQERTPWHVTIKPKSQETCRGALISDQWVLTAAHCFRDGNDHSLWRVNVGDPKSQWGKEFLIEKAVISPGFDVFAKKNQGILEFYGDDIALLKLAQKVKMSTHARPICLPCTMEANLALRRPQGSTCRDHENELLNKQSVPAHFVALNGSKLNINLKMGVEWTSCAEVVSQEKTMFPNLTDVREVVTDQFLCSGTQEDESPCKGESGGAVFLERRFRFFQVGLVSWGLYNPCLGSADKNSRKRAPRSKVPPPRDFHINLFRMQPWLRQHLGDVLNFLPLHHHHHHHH

The target of another assay is T3, human C2 F437A (human, UniProt P06681 21-752).
T3 sequence: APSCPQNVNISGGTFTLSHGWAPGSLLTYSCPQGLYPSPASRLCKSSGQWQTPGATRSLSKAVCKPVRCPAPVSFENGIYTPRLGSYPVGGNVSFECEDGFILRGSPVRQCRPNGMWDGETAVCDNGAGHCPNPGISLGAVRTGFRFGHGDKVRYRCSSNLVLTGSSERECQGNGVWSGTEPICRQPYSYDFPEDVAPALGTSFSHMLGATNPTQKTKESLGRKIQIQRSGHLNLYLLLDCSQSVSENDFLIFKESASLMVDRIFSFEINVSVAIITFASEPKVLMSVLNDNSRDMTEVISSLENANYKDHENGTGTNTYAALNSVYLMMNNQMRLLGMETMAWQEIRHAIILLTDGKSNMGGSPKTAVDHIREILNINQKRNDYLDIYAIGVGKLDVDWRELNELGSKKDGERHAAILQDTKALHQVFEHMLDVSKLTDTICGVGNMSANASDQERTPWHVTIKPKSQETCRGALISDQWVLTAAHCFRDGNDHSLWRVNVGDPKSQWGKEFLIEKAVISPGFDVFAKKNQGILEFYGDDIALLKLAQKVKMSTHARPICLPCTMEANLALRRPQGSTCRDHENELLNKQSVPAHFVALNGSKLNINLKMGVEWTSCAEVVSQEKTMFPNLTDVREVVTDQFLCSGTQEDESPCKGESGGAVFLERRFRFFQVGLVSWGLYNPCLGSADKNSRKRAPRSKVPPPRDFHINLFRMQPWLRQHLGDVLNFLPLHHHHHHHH

For another assay, the target named is T4, human C2 H446A (human, UniProt P06681 21-752).
T4 sequence: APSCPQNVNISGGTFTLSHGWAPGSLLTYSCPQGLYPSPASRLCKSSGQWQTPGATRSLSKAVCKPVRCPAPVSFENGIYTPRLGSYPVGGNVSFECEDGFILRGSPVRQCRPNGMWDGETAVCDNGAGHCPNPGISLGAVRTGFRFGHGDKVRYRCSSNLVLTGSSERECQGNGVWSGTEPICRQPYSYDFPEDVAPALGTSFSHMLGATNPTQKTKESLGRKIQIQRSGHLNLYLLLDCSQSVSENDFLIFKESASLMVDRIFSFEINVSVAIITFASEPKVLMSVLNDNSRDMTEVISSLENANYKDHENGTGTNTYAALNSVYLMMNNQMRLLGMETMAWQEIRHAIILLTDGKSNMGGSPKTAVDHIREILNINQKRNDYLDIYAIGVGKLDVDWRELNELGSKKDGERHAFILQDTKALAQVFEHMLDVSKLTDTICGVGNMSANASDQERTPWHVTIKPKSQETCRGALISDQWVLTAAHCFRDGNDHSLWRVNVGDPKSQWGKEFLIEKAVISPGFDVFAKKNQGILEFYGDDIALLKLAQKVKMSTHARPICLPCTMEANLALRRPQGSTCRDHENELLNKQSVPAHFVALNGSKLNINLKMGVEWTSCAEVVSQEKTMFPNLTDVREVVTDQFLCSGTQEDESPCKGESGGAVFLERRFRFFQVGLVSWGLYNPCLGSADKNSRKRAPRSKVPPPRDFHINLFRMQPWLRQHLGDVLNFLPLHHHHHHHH

B1: RF16-242 (antibody, human IgG4 S228P, lambda, V domains shown)
VH: EVQLLQSGAEVKKPGESLKISCKGSGYSFTSYWIGWVRQMPGKGLEWMGIIYPGDSDTRYSPSFQGQVTISADKSISTAYLQWSSLKASDTAMYYCARRGHYGDYFDYWGQGTLVTVSS
VL: SYELTQPPSVSVSPGQTARITCSGDALPKKYAYWYHQKSGQAPVLVIYEDRRRPSEIPERFSGSSSGTMATLTITGAQVEDEGVYFCYSRDRAGNQRVFGGGTQLTVLG
notes: pH-dependent anti-C2 antibody from a phage display library
B1: the Kd (as a rule, the equilibrium constant for the complex coming apart) with human C2 D282A turned out to be 8 nM; with human C2 N325A, 39.9 nM; with human C2 F437A it was 107 nM; with human C2 H446A, 16.1 nM.
